According to patent US20170097353A1 (University of California, published 2017):
Ends that are not written are not given here. * marks the point of attachment. Butanoyl(4-N3) = [N-]=[N+]=NCCCC(=O)*

B1: P100SP-P4-2 on phage (PEG100, specific attachment, PEG4 linker, ligand 2; on M13 phage wrapped with K14-Cys) (peptide)
peptide: {Mal‑PEG100‑alkyne (triazole)-PEG4 linker}-SECVEVFQNSCDW-NH2
modifications: not fully specified; cysteine pairing not given here
notes: Multivalent display on M13 phage wrapped with K14-Cys
B2: P100SP-2 on phage (PEG100, specific attachment to ligand 2; bioconjugated to M13 phage wrapped with K14-Cys) (peptide)
peptide: SECVEVFQNSCDW-NH2
modifications: not fully specified (N-terminus); cysteine pairing not given here; also: Mal-PEG100-alkyne clicked (triazole) to azide at N-terminus
notes: as for B1
B3: P100NSP-2 on phage (PEG100, non-specific attachment to ligand 2; bioconjugated to M13 phage wrapped with K14-Cys) (peptide)
peptide: {pentynoic acid-Butanoyl(4-N3)}-SECVEVFQNSCDW-NH2
modifications: not fully specified; cysteine pairing not given here; also: Mal-PEG100 coupled non-specifically (N-terminal or side-chain carboxylate)
notes: Multivalent display on M13 phage wrapped with K14-Cys; also called PEGylated ligand 2; peptide-2
B4: P100NSP-P4-2 on phage (PEG100, non-specific attachment, PEG4 linker, ligand 2; on M13 phage wrapped with K14-Cys) (peptide)
peptide: {pentynoic acid-15‑azido‑4,7,10,13‑tetraoxapentadecanoic acid}-SECVEVFQNSCDW-NH2
modifications: not fully specified; cysteine pairing not given here; also: pentynoic acid clicked to azide (triazole), Mal-PEG100-NH2 HBTU-coupled non-specifically
notes: as for B1

Molecular target: T1, Prostate Specific Membrane Antigen (PSMA) on the surface of LNCaP / LNCaP CSS prostate cancer cells (human, UniProt Q04609 1-750, glycoprotein)
T1 construct: whole, on cells; Endogenous PSMA on LNCaP cells (derived from lymph node adenocarcinoma of the human prostate); Cells were glutaraldehyde-fixed on Maxisorp plates in the cell-based phage ELISA, or in suspension in the sandwich ELISA; also called cell surface PSMA
T1 sequence (Q04609 whole entry): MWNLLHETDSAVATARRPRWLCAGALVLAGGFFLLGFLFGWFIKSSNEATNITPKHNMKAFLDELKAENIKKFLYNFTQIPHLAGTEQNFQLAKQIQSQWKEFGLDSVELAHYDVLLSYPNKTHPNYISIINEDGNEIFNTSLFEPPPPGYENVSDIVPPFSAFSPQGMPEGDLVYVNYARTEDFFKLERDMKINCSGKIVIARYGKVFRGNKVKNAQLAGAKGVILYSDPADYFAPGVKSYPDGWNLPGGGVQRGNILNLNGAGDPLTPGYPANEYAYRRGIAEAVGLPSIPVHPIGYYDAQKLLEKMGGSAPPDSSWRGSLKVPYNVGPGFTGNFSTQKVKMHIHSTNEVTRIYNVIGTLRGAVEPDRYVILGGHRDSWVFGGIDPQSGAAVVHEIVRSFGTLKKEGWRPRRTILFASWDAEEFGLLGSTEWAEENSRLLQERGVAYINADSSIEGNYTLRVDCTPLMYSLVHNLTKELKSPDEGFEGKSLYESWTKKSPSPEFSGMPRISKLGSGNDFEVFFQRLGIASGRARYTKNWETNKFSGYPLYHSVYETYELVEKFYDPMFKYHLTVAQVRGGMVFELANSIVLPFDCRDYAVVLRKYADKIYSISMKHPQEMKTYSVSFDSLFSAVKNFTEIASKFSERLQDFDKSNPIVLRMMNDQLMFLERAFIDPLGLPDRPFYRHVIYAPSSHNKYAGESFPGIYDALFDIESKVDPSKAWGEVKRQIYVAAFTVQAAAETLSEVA
Test: cell-based phage ELISA on LNCaP cells (FIG. 5A)

| Binder | binding result |
| --- | --- |
| B1 | binds |
| B2 | binds |
| B3 | binds |
| B4 | binds |
